# Values of other authors in patent publication US20190262496A1, “Compositions and Methods for Collagen-Based Sutures and Antibacterial Coatings” (UNIVERSITY HOSPITALS CLEVELAND MEDICAL CENTER, priority 2016, published 2019).
# Details: in vivo
substance,measurement,value
PDGF-BB: platelet derived growth factor-BB,half-life of the growth factor,a few minutes
